Measured values from patent publication US20140199314A1.

Biological target: BMP-2 (UniProt P12643)
Assay: cell-based or functional assay

Chain of UniProt P12643 (P12643 283-396 limits assumed): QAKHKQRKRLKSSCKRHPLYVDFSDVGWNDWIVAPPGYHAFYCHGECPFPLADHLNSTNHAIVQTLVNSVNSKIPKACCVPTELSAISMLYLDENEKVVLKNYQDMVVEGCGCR

inhibition of BMP-2 induction of hepcidin promoter activity (luciferase) by 20% pooled serum from DRAGON.Fc treated mice; serum from mock treated control mice inhibited by about 30%: > 70%
Substance: DRAGON.Fc (soluble DRAGON fused to the Fc portion of human immunoglobulin) (from UniProt Q6NW40 46-409) (Fc fusion)
